Source: PMC8629852 (Archives of biochemistry and biophysics, 2021)

Legend:
[1] = biological target: adrenodoxin (UniProt P00257); conditions: cited from earlier work
[2] = biological target: adrenodoxin (Homo sapiens) (UniProt P10109); assay: microscale thermophoresis; conditions: cited from earlier work
[3] = biological target: the molecule itself; assay: cross-linking

Molecule: AdR (from UniProt P08165)
- Kd [1]: 70 nM

Molecule: P450 27C1 (from UniProt Q4G0S4)
- Kd [2]: 220 nM

B1: Human adrenodoxin (Adx), unlabeled (natural protein, UniProt P10109 61-184, looked up)
chain: SSSEDKITVHFINRDGETLTTKGKVGDSLLDVVVENNLDIDGFGACEGTLACSTCHLIFEDHIYEKLDAITDEENDMLDLAYGLTDRSRLGCQICLTKSMDNMTVRVPETVADARQSIDVGKTS
- stoichiometry N [3]: 2
